B1: EFEMP1 (protein, UniProt Q12805 18-493, looked up)
EGF-containing fibulin-like …: QDTEETITYTQCTDGYEWDPVRQQCKDIDECDIVPDACKGGMKCVNHYGGYLCLPKTAQIIVNNEQPQQETQPAEGTSGATTGVVAASSMATSGVLPGGGFVASAAAVAGPEMQTGRNNFVIRRNPADPQRIPSNPSHRIQCAAGYEQSEHNVCQDIDECTAGTHNCRADQVCINLRGSFACQCPPGYQKRGEQCVDIDECTIPPYCHQRCVNTPGSFYCQCSPGFQLAANNYTCVDINECDASNQCAQQCYNILGSFICQCNQGYELSSDRLNCEDIDECRTSSYLCQYQCVNEPGKFSCMCPQGYQVVRSRTCQDINECETTNECREDEMCWNYHGGFRCYPRNPCQDPYILTPENRCVCPVSNAMCRELPQSIVYKYMSIRSDRSVPSDIFQIQATTIYANTINTFRIKSGNENGEFYLRQTSPVSAMLVLVKSLSGPREHIVDLEMLTVSSIGTFRTSSVLRLTIIVGPFSF
B2: SORBS2 (protein, UniProt O94875 1-1100, looked up)
Sorbin and SH3 …: MSYYQRPFSPSAYSLPASLNSSIVMQHGTSLDSTDTYPQHAQSLDGTTSSSIPLYRSSEEEKRVTVIKAPHYPGIGPVDESGIPTAIRTTVDRPKDWYKTMFKQIHMVHKPDDDTDMYNTPYTYNAGLYNPPYSAQSHPAAKTQTYRPLSKSHSDNSPNAFKDASSPVPPPHVPPPVPPLRPRDRSSTEKHDWDPPDRKVDTRKFRSEPRSIFEYEPGKSSILQHERPASLYQSSIDRSLERPMSSASMASDFRKRRKSEPAVGPPRGLGDQSASRTSPGRVDLPGSSTTLTKSFTSSSPSSPSRAKGGDDSKICPSLCSYSGLNGNPSSELDYCSTYRQHLDVPRDSPRAISFKNGWQMARQNAEIWSSTEETVSPKIKSRSCDDLLNDDCDSFPDPKVKSESMGSLLCEEDSKESCPMAWGSPYVPEVRSNGRSRIRHRSARNAPGFLKMYKKMHRINRKDLMNSEVICSVKSRILQYESEQQHKDLLRAWSQCSTEEVPRDMVPTRISEFEKLIQKSKSMPNLGDDMLSPVTLEPPQNGLCPKRRFSIEYLLEEENQSGPPARGRRGCQSNALVPIHIEVTSDEQPRAHVEFSDSDQDGVVSDHSDYIHLEGSSFCSESDFDHFSFTSSESFYGSSHHHHHHHHHHHRHLISSCKGRCPASYTRFTTMLKHERARHENTEEPRRQEMDPGLSKLAFLVSPVPFRRKKNSAPKKQTEKAKCKASVFEALDSALKDICDQIKAEKKRGSLPDNSILHRLISELLPDVPERNSSLRALRRSPLHQPLHPLPPDGAIHCPPYQNDCGRMPRSASFQDVDTANSSCHHQDRGGALQDRESPRSYSSTLTDMGRSAPRERRGTPEKEKLPAKAVYDFKAQTSKELSFKKGDTVYILRKIDQNWYEGEHHGRVGIFPISYVEKLTPPEKAQPARPPPPAQPGEIGEAIAKYNFNADTNVELSLRKGDRVILLKRVDQNWYEGKIPGTNRQGIFPVSYVEVVKKNTKGAEDYPDPPIPHSYSSDRIHSLSSNKPQRPVFTHENIQGGGEPFQALYNYTPRNEDELELRESDVIDVMEKCDDGWFVGTSRRTKFFGTFPGNYVKRL
B3: GPS2 (protein, UniProt Q13227 1-327, looked up)
G protein pathway suppressor 2: MPALLERPKLSNAMARALHRHIMMERERKRQEEEEVDKMMEQKMKEEQERRKKKEMEERMSLEETKEQILKLEEKLLALQEEKHQLFLQLKKVLHEEEKRRRKEQSDLTTLTSAAYQQSLTVHTGTHLLSMQGSPGGHNRPGTLMAADRAKQMFGPQVLTTRHYVGSAAAFAGTPEHGQFQGSPGGAYGTAQPPPHYGPTQPAYSPSQQLRAPSAFPAVQYLSQPQPQPYAVHGHFQPTQTGFLQPGGALSLQKQMEHANQQTGFSDSSSLRPMHPQALHPAPGLLASPQLPVQMQPAGKSGFAATSQPGPRLPFIQHSQNPRFYHK
B4: TMF1 (protein, UniProt P82094 1-1093, looked up)
TATA element modulatory factor: MSWFNASQLSSFAKQALSQAQKSIDRVLDIQEEEPSIWAETIPYGEPGISSPVSGGWDTSTWGLKSNTEPQSPPIASPKAITKPVRRTVVDESENFFSAFLSPTDVQTIQKSPVVSKPPAKSQRPEEEVKSSLHESLHIGQSRTPETTESQVKDSSLCVSGETLAAGTSSPKTEGKHEETVNKESDMKVPTVSLKVSESVIDVKTTMESISNTSTQSLTAETKDIALEPKEQKHEDRQSNTPSPPVSTFSSGTSTTSDIEVLDHESVISESSASSRQETTDSKSSLHLMQTSFQLLSASACPEYNRLDDFQKLTESCCSSDAFERIDSFSVQSLDSRSVSEINSDDELSGKGYALVPIIVNSSTPKSKTVESAEGKSEEVNETLVIPTEEAEMEESGRSATPVNCEQPDILVSSTPINEGQTVLDKVAEQCEPAESQPEALSEKEDVCKTVEFLNEKLEKREAQLLSLSKEKALLEEAFDNLKDEMFRVKEESSSISSLKDEFTQRIAEAEKKVQLACKERDAAKKEIKNIKEELATRLNSSETADLLKEKDEQIRGLMEEGEKLSKQQLHNSNIIKKLRAKDKENENMVAKLNKKVKELEEELQHLKQVLDGKEEVEKQHRENIKKLNSMVERQEKDLGRLQVDMDELEEKNRSIQAALDSAYKELTDLHKANAAKDSEAQEAALSREMKAKEELSAALEKAQEEARQQQETLAIQVGDLRLALQRTEQAAARKEDYLRHEIGELQQRLQEAENRNQELSQSVSSTTRPLLRQIENLQATLGSQTSSWEKLEKNLSDRLGESQTLLAAAVERERAATEELLANKIQMSSMESQNSLLRQENSRFQAQLESEKNRLCKLEDENNRYQVELENLKDEYVRTLEETRKEKTLLNSQLEMERMKVEQERKKAIFTQETIKEKERKPFSVSSTPTMSRSSSISGVDMAGLQTSFLSQDESHDHSFGPMPISANGSNLYDAVRMGAGSSIIENLQSQLKLREGEITHLQLEIGNLEKTRSIMAEELVKLTNQNDELEEKVKEIPKLRTQLRDLDQRYNTILQMYGEKAEEAEELRLDLEDVKNMYKTQIDELLRQSLS
B5: ITGAL (protein, UniProt P20701 26-1170, looked up)
Integrin alpha-L: YNLDVRGARSFSPPRAGRHFGYRVLQVGNGVIVGAPGEGNSTGSLYQCQSGTGHCLPVTLRGSNYTSKYLGMTLATDPTDGSILACDPGLSRTCDQNTYLSGLCYLFRQNLQGPMLQGRPGFQECIKGNVDLVFLFDGSMSLQPDEFQKILDFMKDVMKKLSNTSYQFAAVQFSTSYKTEFDFSDYVKRKDPDALLKHVKHMLLLTNTFGAINYVATEVFREELGARPDATKVLIIITDGEATDSGNIDAAKDIIRYIIGIGKHFQTKESQETLHKFASKPASEFVKILDTFEKLKDLFTELQKKIYVIEGTSKQDLTSFNMELSSSGISADLSRGHAVVGAVGAKDWAGGFLDLKADLQDDTFIGNEPLTPEVRAGYLGYTVTWLPSRQKTSLLASGAPRYQHMGRVLLFQEPQGGGHWSQVQTIHGTQIGSYFGGELCGVDVDQDGETELLLIGAPLFYGEQRGGRVFIYQRRQLGFEEVSELQGDPGYPLGRFGEAITALTDINGDGLVDVAVGAPLEEQGAVYIFNGRHGGLSPQPSQRIEGTQVLSGIQWFGRSIHGVKDLEGDGLADVAVGAESQMIVLSSRPVVDMVTLMSFSPAEIPVHEVECSYSTSNKMKEGVNITICFQIKSLIPQFQGRLVANLTYTLQLDGHRTRRRGLFPGGRHELRRNIAVTTSMSCTDFSFHFPVCVQDLISPINVSLNFSLWEEEGTPRDQRAQGKDIPPILRPSLHSETWEIPFEKNCGEDKKCEANLRVSFSPARSRALRLTAFASLSVELSLSNLEEDAYWVQLDLHFPPGLSFRKVEMLKPHSQIPVSCEELPEESRLLSRALSCNVSSPIFKAGHSVALQMMFNTLVNSSWGDSVELHANVTCNNEDSDLLEDNSATTIIPILYPINILIQDQEDSTLYVSFTPKGPKIHQVKHMYQVRIQPSIHDHNIPTLEAVVGVPQPPSEGPITHQWSVQMEPPVPCHYEDLERLPDAAEPCLPGALFRCPVVFRQEILVQVIGTLELVGEIEASSMFSLCSSLSISFNSSKHFHLYGSNASLAQVVMKVDVVYEKQMLYLYVLSGIGGLLLLLLIFIVLYKVGFFKRNLKEKMEAGRGVPNGIPAEDSEQLASGQEAGDPGCLKPLHEKDSESGGGKD
B6: MOBK1B (protein, UniProt Q7L9L4 2-216, looked up)
MOB kinase activator 1B: SFLFGSRSSKTFKPKKNIPEGSHQYELLKHAEATLGSGNLRMAVMLPEGEDLNEWVAVNTVDFFNQINMLYGTITDFCTEESCPVMSAGPKYEYHWADGTNIKKPIKCSAPKYIDYLMTWVQDQLDDETLFPSKIGVPFPKNFMSVAKTILKRLFRVYAHIYHQHFDPVIQLQEEAHLNTSFKHFIFFVQEFNLIDRRELAPLQELIEKLTSKDR

What follows are molecules tested against T1, HCV ORFs (Gal4-DB fusions) (Hepatitis C virus genotype 1b, UniProt Q9WMX2) (assay: not given). Details: HCV protein NS3 as bait; human protein as prey.
T1 construct: expressed in transfected cells; host or cells: Saccharomyces cerevisiae MAV203 (IMAP1) / AH109 (IMAP2)
Assay type: binding, HCV genotype 1b, isolate con1
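For IMAP Y2H IMAP1 (number of IST) in this document: yeast two-hybrid screens using HCV genotype 1b proteins fused to Gal4-DB as baits against prey cDNA libraries from human spleen and foetal brain, IMAP1 via transformation and IMAP2 via mating.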
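For IMAP Y2H IMAP2 (number of IST) in this document: yeast two-hybrid screens using HCV genotype 1b proteins fused to Gal4-DB as baits against prey cDNA libraries from human spleen and foetal brain, IMAP1 via transformation and IMAP2 via mating.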
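For Interaction with viral protein in this document: yeast two-hybrid screens using HCV genotype 1b proteins fused to Gal4-DB as baits against prey cDNA libraries from human spleen and foetal brain, IMAP1 via transformation and IMAP2 via mating.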
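For Y2H matrices in this document: yeast two-hybrid pairwise tests of interactions first found in Y2H screens of HCV bait proteins against human cDNA libraries.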

Row | Molecule | IMAP Y2H IMAP1 (number of IST)
1 | B1 | 10

Same assay, conditions: HCV protein NS5A as bait; human protein as prey

Row | Molecule | IMAP Y2H IMAP2 (number of IST)
2 | B2 | 8
3 | B3 | 1
4 | B4 | 2
5 | B5 | 1
6 | B6 | 5
7 | B1 | 2

Same assay, conditions: HCV protein NS5B as bait; human protein as prey

Row | Molecule | IMAP Y2H IMAP2 (number of IST)
8 | B6 | 3

Each molecule was assayed on HCV ORFs (Gal4-DB fusions) (assay: not given). Details: human protein listed by gene symbol; the value names the HCV protein it interacts with.
Assay type: binding, HCV genotype 1b, isolate con1

Row | Molecule | Interaction with viral protein
9 | B2 | NS5A
10 | B3 | NS5A
11 | B4 | NS5A
12 | B5 | NS5A
13 | B6 | NS5A
14 | B1 | NS3 and NS5A

These molecules were tested against T2, GST-tagged viral proteins (Hepatitis C virus genotype 1b, UniProt Q9WMX2) (assay: Validation by co-affinity purification (CoAP)). Details: interaction with HCV protein NS5A.
T2 construct: expressed in transfected cells; host or cells: HEK-293T
T2 sequence (Q9WMX2 1973-2419): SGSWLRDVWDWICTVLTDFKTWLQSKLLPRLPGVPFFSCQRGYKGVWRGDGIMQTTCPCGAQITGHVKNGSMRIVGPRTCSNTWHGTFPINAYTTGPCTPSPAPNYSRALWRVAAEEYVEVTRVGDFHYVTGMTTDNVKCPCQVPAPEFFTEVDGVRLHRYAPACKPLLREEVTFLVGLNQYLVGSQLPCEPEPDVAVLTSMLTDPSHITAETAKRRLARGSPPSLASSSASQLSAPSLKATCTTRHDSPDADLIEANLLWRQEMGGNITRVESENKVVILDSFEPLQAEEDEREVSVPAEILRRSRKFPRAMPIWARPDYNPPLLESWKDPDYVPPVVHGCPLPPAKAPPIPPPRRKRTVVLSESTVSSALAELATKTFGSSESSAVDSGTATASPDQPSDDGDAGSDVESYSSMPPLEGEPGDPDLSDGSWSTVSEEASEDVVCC
Assay type: binding, HCV genotype 1b, isolate con1
Set-up: key: +: IMAP validation; −: not validated; NA: non assayable due to default of protein expression or to cellular protein directly interacting with GST
Source text: C. Validation of Y2H interactions by co-affinity purification assay. Nine co-AP positive assays are shown, representing: NS5A-SORBS2 (1), NS3-CALCOCO2 (2), NS5A-BIN1 (3), NS5A-MOBK1B (4), NS5A-EFEMP1 (5), NS3-PSMB9 and NS5A-PSMB9 (6), NS5A-PPPIRI3L (7), NS3-RASAL2 (8). After pull-down with GST tagged viral baits (+) or with negative control GST alone (−), cellular preys are identified with anti-Flag antibody. Anti-GST antibody identifies either GST alone or GST-tagged viral baits. Expression of cellular preys in cell lysate is controlled by anti-Flag (bottom panel). […]
A random pool of 59 IMAP Y2H interactions was chosen for CoAP assays. Cellular ORFs (interacting domains found in Y2H screens) were cloned by recombinational cloning from a pool of human cDNA library or the MGC cDNA plasmids using KOD polymerase (Toyobo) into pDONR207 (Invitrogen). After validation by sequencing, these ORFs were transferred to pCi-neo-3xFLAG gateway-converted, and HCV ORFs were transferred into pDEST27 (GST fusion in N-term). HEK-293T cells were then co-transfected (JetPei, Polyplus) by each pair of plasmid encoding interacting proteins. Controls are GST alone against 3xFLAG-tagged preys. Two days after transfection, cells were harvested and lysed (0.5% NP-40, 20 mM Tris-HCl (pH 8.0), 180 mM NaCl, 1 mM EDTA, and complete protease inhibitor cocktail). Cell lysates were cleared by centrifugation for 20 min at 13,000 rpm at 4° C. and soluble protein complexes were purified using Glutathione Sepharose 4B beads (GE Healthcare). Beads were then washed extensively four times with lysis buffer and proteins were separated on SDS-PAGE and transferred to nitrocellulose membrane. GST-tagged viral proteins and 3xFLAG-tagged cellular proteins were detected using standard immunoblotting techniques using anti-GST (Covance) and anti-FLAG M2 (Sigma) monoclonal antibodies (21).

Row | Molecule | CoAP
15 | B2 | +
16 | B3 | +
17 | B4 | −
18 | B5 | +
19 | B6 | +
20 | B1 | +

The molecules below were run against T3, HCV proteins (Hepatitis C virus genotype 1b, UniProt Q9WMX2) (assay: Validation by Y2H pairwise matrices). Details: validation of interaction with HCV protein NS3.
T3 construct: expressed in transfected cells
T3 sequence (Q9WMX2 1027-1657): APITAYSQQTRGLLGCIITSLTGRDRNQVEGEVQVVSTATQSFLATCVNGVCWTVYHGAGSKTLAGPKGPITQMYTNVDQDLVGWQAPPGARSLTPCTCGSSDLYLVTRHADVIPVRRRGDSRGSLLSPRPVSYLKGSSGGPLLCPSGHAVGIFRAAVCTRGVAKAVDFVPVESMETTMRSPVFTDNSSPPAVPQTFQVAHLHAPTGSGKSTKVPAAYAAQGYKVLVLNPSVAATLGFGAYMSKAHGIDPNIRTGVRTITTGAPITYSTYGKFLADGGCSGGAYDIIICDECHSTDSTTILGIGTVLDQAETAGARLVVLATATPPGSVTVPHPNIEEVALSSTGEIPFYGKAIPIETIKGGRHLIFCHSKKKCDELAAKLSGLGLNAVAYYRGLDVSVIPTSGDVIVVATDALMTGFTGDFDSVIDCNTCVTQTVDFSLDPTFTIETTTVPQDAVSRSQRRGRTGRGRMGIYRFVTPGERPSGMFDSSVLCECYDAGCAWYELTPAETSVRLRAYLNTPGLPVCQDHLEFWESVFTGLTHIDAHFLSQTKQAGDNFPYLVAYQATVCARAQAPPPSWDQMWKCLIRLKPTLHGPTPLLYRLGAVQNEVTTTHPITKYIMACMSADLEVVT
Assay type: binding

Row | Molecule | Y2H matrices
21 | B1 | +

Source: patent US20110091994A1, “Methods for Screening Compounds for Treating and/or Preventing an Hepatitis C Virus Infection” (priority 2008, published 2011)
